The text below walks through data of patent US20080075726A1 (VACCINEX, published 2008).

Substitutions are numbered along the chain they refer to.

To fix the notation:
B1: mAb 246 (antibody, V domains shown)
VH: QVTLKESGPTLVKPTQTLTLTCTFSGFSLSTSGVAVGWIRQPPGKALEWLALIFWDDDKHYSPSLKSRLTITKDTSKNQVVLTMTNMDPVDTATYYCARSYDDYLYYALDYWGQGTLVTVSS
VL: EIVLTQSPGTLSLSPGERATLSCRASQTIDSSYLAWYQQKPGQAPRLLVYGASSRATGIPDRFSDSGSGTDFTLTISRLEPEDFAVYYCQQYAKSPITFGQGTKLE
B2: mAb 248 (antibody, V domains shown)
VH: B1 VH
VL: DIVMTQSPSSLSASVGDRVTITCRASQTISSYLNWYQQKPGKPPKLLIYAASSLESGVPSRFSGSGSGTEFTLTISSLQPEDLATYYCQQANSFPLTFGGGTKLE
B3: mAb 297 (antibody, V domains shown)
VH: B1 VH
VL: DIQMTQSPSSLSASVGDSVTITCRASQTISDFLNWYQQKPGKAPKLLIHASSNLQSGVPSRFSGSGSGTDFTLTISDLQPEDFATYSCQQTYSTLGTFGQGTRLE
B4: mAb 201 (antibody, V domains shown)
VH: QVTLKESGPALVKPTQTLTLTCTFSGFSLTTSGMCVSWIRQPPGKALEWLALIYWDDDKRYNPSLRSRLTITKDTSKNQVVLTMTNMDPVDTATYYCARSHDDYLYYALDYWGQGTLVT
VL: DIQMTQSPSSLSAFVGDGVTMTCWASQSINDYLNWYHQRPGEAPELLVFAASNLQIGVPSRFRGSGSETYFTLTINSLQPEDSGTYFCQQTSSFPLTFGGGTKLE
B5: mAb 192 (antibody, V domains shown)
VH: B4 VH with H101Y
VL: DIVMTQSPSSLSASVGDRVTITCRASRNINTYLNWYQQKPGKAPKLLVHSASTLQSGAPSRFSGSGYGTEFTLIISSLQPDDFATYYCQQGYNTLTFGPGTKLE
B6: mAb 190 (antibody, V domains shown)
VH: B4 VH with H101Y
VL: B3 VL
B7: mAb 185 (antibody, V domains shown)
VH: B4 VH with H101Y
VL: DVVMTQSPSSVSASVGDRVTITCRASQVIDSWLHWYQREPGKAPKILIYAATTLQRGVPSRFSGSGFGTEFTLTISGLQPEDFATYFCQQGYSFPITFGQGTRLEIK
B8: mAb 193 (antibody, V domains shown)
VH: B4 VH with H101Y
VL: EIVLTQSPSSLSASVGDRVTISCRASQNIIDYLNWYQHKPGKVPTLLISGTSTLQSGVPSRFSGSGFGTDFTLTISSVQPEDVATYYCQQGHGTPLSFGGGTKLEIK
B9: mAb 123 (antibody, V domains shown)
VH: B4 VH
VL: DIVMTQSPATLSVTPGDRVSLSCRASQSISDYLHWYQQKSHESPRLLIKSVSQSISGIPSRFSGSGSGSDFTLSINSVEPEDVGVYYCQNGHSFPLTFGAGTKLELK
B10: mAb 286 (antibody, V domains shown)
VH: B4 VH with T30S, A51T, N62S, R66E, S67T, H101Y
VL: B2 VL
B11: mAb 265 (antibody, V domains shown)
VH: B4 VH with H101Y
VL: DIQMTQSPSTLSASVGDRVTITCRASQSMSDYLNWYQQKPGKAPKLLIYSASGLQSGVPSRFSGSGSGTDFTLTIINLQPEDVAAYYCQQSFSFPLTFGPGTKLEIK
B12: mAb 242 (antibody, V domains shown)
VH: QVTLKESGPTLVKPTQTLTLTCSFSGFSLSTSGVGVGWVRQPPGKALEWLAFIFWDDDKYYSPSLESRLTITKDTSKNQVVLTMTNMDPVDTATYYCARSYDDYLYYALDYWGQGTLVT
VL: B2 VL
B13: mAb 181 (antibody, V domains shown)
VH: B4 VH with H101Y
VL: B2 VL
B14: mAb 197 (antibody, V domains shown)
VH: B4 VH
VL: B7 VL
B15: mAb 202 (antibody, V domains shown)
VH: B4 VH
VL: B3 VL
B16: mAb 205 (antibody, V domains shown)
VH: B4 VH
VL: B8 VL
B17: mAb 179 (antibody, V domains shown)
VH: B4 VH with H101Y
VL: B9 VL
B18: mAb 239 (antibody, V domains shown)
VH: QVTLKESGPTLVKPTQTLTLTCIFSGFSFKTSGVSVGWIRQPPGKALEWLALIYWDDDKRYSPSLKNRLTITRDTSKNQVVLTMTNMDPVDTATYYCARSYDDYLYYALDYWGQGTLVT
VL: DVVMTQSPSSVSASVGDRVTITCRASQDIDNFLAWYQQKPGKAPNLLIYKVSSLRSGVPSRFSGSRSGTDFTLTITSLQPEDFATYFCQQTRRFPLTFGPGTKLE
B19: mAb 247 (antibody, V domains shown)
VH: B1 VH
VL: B18 VL
B20: mAb 241 (antibody, V domains shown)
VH: B12 VH
VL: B18 VL
B21: mAb 285 (antibody, V domains shown)
VH: B4 VH with T30S, A51T, N62S, R66E, S67T, H101Y
VL: B18 VL
B22: mAb 237 (antibody, V domains shown)
VH: B18 VH with I23T, F29L, K30R, I39F, I53V, K59R, S62N
VL: B18 VL

The assay concerns the target T1, recombinant human IL-6 (human, UniProt P05231 30-212, limits assumed).
T1 construct: also called rhIL6; human recombinant IL-6
The assay can be described thus: competition ELISA, rhIL-6 in solution against captured IL-6. The procedure: Briefly, plates were coated with 2 μg/ml of mBE4 capture antibody in coating buffer, 100 μl per well. The plates were incubated overnight. Next, the plates were washed 3 times and tapped dry. The plates were then blocked with 200 μl per well of Assay Diluent or 10% FBS in PBS and incubated for 2 hours. […] The reaction was left at RT for 3-4 hours. […] Next, the plates were washed 3 times and tapped dry. […] The plates were incubated for 1-2 hours. The plates were washed 3 times and tapped dry. […] The plates were incubated at RT for 2 hours. (Therefore, any unbound mAb at this point will be measured by ELISA). Plates were then washed 5 times and tapped dry. 100 μl of detection Ab goat anti-human IgG F(ab)′2-HRP (Jackson lab) was added at 1:20,000 dilutions or 1:40,000 dilutions (depending on lot) and the plates were incubated for 1-2 hours. The plates were washed 7 times and tapped dry. Next, the Developer Substrate (equal parts of each reagent in the kit) was pre-mixed and allowed to warm to room temperature before use. Then 100 μl of Developer was added to each well. The plates were allowed to develop for 15 minutes un-sealed in a drawer in the dark. Finally, developing was stopped by adding 100 μl of 2N H₂SO₄ to each well and plates were read as Endpoint at 450 nm-[…].
Background: In an ELISA, binding on a coated surface is turned into a signal by an enzyme label.
Broadly, the IC50 is the concentration that gives 50% inhibition. Regarding B1, the concentration for half-maximal inhibition (IC50) was 5.5 nM.
Turning to B2, the IC50 came out at 2 nM.
On to B3, for which the IC50 is 11.5 nM.
As for B4, the figure is 2 nM; as for B5, 2.3 nM; as for B6, 1.9 nM.
With B7 the figure was 1.5 nM; with B8, 2.7 nM; with B9, 1.1 nM.
For B10, the IC50 turned out to be 2.5 nM.
With B11 the figure was 6.2 nM; with B12, 2.2 nM; with B13, 12.9 nM.
As for B14, the figure is 3.7 nM; as for B15, 2.4 nM.
As for B16, the IC50 stood at 7.4 nM.
For B17, the IC50 lay in the range of 0.85 to 4.2 nM.
With B18 the figure was 9.6 nM; with B19, 4 nM.
With B20 the figure was 6.5 nM; with B21, 2.5 nM; with B22, 6.5 nM.
